Reference: patent US20250019435A1 (ALBERT EINSTEIN COLLEGE OF MEDICINE, published 2025)

T1: PVR expressed on transduced cells (PVR-YFP) (UniProt P15151 21-417)
T1 construct: whole, on cells; On NIH 3T3 or Raji cells; also called PVR/3T3; PVR-YFP/3T3; not shown: YFP ('PVR-YFP ... fusion protein')
T1 sequence (looked up): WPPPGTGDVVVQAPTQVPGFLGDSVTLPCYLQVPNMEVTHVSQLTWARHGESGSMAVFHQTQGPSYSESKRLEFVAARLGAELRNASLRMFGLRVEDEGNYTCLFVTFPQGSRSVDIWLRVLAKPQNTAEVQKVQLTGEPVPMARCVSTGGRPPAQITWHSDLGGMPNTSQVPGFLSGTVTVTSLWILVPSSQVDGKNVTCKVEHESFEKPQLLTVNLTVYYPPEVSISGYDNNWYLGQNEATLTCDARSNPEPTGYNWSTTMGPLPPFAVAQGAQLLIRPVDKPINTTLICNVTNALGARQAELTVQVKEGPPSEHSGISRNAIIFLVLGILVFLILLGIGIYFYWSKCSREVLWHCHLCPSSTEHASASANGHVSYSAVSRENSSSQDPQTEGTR

T2: SHP-2 (human, UniProt Q06124 2-593)
T2 sequence (looked up): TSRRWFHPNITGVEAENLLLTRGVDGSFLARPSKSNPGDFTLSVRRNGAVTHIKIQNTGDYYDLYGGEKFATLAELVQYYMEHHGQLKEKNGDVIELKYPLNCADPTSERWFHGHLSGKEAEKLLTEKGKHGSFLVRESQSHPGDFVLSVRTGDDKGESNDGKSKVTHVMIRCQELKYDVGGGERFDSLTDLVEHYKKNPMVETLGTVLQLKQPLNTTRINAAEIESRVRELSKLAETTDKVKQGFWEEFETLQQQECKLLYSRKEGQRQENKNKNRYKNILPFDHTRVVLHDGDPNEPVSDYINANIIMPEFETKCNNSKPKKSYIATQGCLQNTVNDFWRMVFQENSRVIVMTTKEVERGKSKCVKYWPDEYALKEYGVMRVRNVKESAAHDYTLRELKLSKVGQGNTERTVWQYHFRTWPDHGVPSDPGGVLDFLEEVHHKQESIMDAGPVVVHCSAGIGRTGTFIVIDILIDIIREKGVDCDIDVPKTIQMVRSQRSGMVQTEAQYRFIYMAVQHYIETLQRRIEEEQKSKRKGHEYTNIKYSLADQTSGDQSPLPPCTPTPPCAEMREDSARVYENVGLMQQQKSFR


What was measured:
[1] = target: T3, KIR2DL5-Ig fusion protein (KIR2DL5 extracellular domain fused to human IgG1 Fc) (human, UniProt Q8N109 22-240); assay: BLI, Octet RED96; KIR2DL5-Ig captured on anti-human Fc biosensors, mAb in solution; global 1:1 fit
T3 construct: A D0-only fusion (H22-A128) also exists; also called KIR2DL5-human Ig fusion protein; KIR2DL5 DO-D2-Ig; not shown: human IgG1 Fc tag
Experimental: Biolayer interferometry. The affinities of anti-KIR2DL5 mAbs were analyzed by biolayer interferometry using an Octet RED96 system (ForteBio, Pall LLC). Briefly, anti-human Fc capture biosensors (ForteBio, Pall LLC) were preloaded with KIR2DL5-Ig and then dipped into a solution containing mAb at 2-fold serial dilutions (from 200 to 1.5 μg/mL). Data were analyzed using Forte Pall (Port Washington, New York, USA) software 9.0. The global data fitting to a 1:1 binding model was used to estimate values for the Kₒₙ (association rate constant), Koff (dissociation rate constant), and KD (equilibrium dissociation constant).

[2] = target: T4, D2-deleted KIR2DL5 expressed on 3T3 cells (human, UniProt Q8N109 22-375); assay: flow cytometry, transduced 3T3 cells
T4 construct: also called KIR2DL5 dD2
From the text: (§1) FIG. 15A-15E: Characterization of anti-KIR2DL5 specific monoclonal antibodies. (Related to FIGS. 8A-8D). (A) The protein sequence of KIR2DL5. The extracellular domain of KIR2DL5 was composed of tandem DO-D2 domains. The cytoplasmic tail of KIR2DL5 contained an immunoreceptor tyrosine-based inhibition motif (ITIM) and immunoreceptor tyrosine-based switch motif (ITSM). Domains were predicted and annotated based on UniProtKB (Q8N109). (B) The specificity of anti-KIR2DL5 mAbs. 3T3 cells transduced with indicated KIR family members were stained with 5 μg/ml of indicated anti-KIR2DL5 mAbs (open) or mIgG1 (shaded). (C, D) The affinity of anti-KIR2DL5 mAbs. C: Kinetic binding curves for F8B30 and B19C11. D: Data were acquired from kinetic binding curves detected by the Octet Red96 BLI instrument for indicated clones. (E) 3T3 cells transduced with DO-deleted (KIR2DL5 dD0) or D2-deleted KIR2DL5 (KIR2DL5 dD2) were stained with 5 μg/ml of indicated anti-KIR2DL5 mAbs. In B-E, data are representative of three independent experiments.

[3] = target: T5, D0-deleted KIR2DL5 expressed on 3T3 cells (human, UniProt Q8N109 119-375); assay: flow cytometry, transduced 3T3 cells
T5 construct: the signal peptide 1-21 is left out; also called KIR2DL5 dD0; DO-deleted KIR2DL5
From the text: as §1

[4] = target: T1, PVR expressed on transduced cells …; assay: confocal imaging of conjugates of transduced primary NK cells with PVR-YFP/Raji cells
Experimental: (§2) The KIR2DL5⁻ primary NK cells were transduced with WT KIR2DL5 or the indicated mutants, and then examined for protein expression with F8B30 (open) or mIgG1 (shaded). NC, negative control. Data are representative of 2 independent experiments. (B and C) Transduced primary NK cells were treated with (+) or without (−) pervanadate (VO₄) for 5 minutes. Cell lysates were immunoprecipitated with anti-KIR2DL5 antibodies. Phospho-tyrosine (4G10), SHP-1, SHP-2, and total KIR2DL5 were detected by immunoblots (B). Quantification of p-Tyr, SHP-1, and SHP-2 association with WT or mutant KIR2DL5 in VO₄-treated NK cells (C). WCL, whole-cell lysates. (D) Representative imaging of cell conjugates acquired upon the indicated transduced primary NK and PVR/Raji cell contact followed by staining with anti-KIR2DL5 mAb and DAPI. Scale bars: […]. (E) Lysis of scramble control or PVR^KO A427 (top) and Jurkat (bottom) by WT or mutant KIR2DL5-transduced primary NK cells at the indicated E/T ratios. Data are mean for duplicate measurements and representative of 3 independent experiments with 3 different donors. In A, and B, data are representative of 3 independent experiments. *P<0.05, **P<0.01, ***P<0.001, ****P<0.0001, by 1-way ANOVA (C), or paired Student's t test (D).
NK-Raji conjugation assay. […] Cell mixtures were then loaded onto poly-L-lysine-precoated slides and fixed with 4% formaldehyde at RT for 15 minutes. After blocking with 5% normal goat serum at RT for 1 hour, cells were stained with 20 µg/mL anti-KIR2DL5 antibodies (a mixture of 8 homemade clones) at 4° C. overnight and then with goat anti-mIgG (H+L) Alexa Flour 647 (Invitrogen) at RT for 2 hours. The cells were permeabilized by 0.1% Triton X-100 at RT for 15 minutes and stained with Alexa Flour Plus 405 Phalloidin (Life Technologies) for 1 hour at RT. The slides were then mounted by Gold Antifade Mountant without DAPI (Life Technologies). The mean pixel intensity of synapse and non-synapse was respectively measured and statistically analyzed. Images were acquired by Leica SP8 confocal microscope and processed by ImageJ (NIH).

SHP-2 = target: T2, SHP-2; assay: co-immunoprecipitation with anti-KIR2DL5 from transduced primary NK cells with or without pervanadate, immunoblot
Experimental: as §2, with “FIG. 12A-12E: KIR2DL5 ITIM and ITSM mediated NK cell inhibition and suppressed downstream signaling. (A) Tyrosine (Y) in ITIM and ITSM of KIR2DL5 was mutated to phenylalanine (F). The” for “The”
Coimmunoprecipitation and immunoblotting. NK92 cells or primary NK cells pretreated with or without 1 mM pervanadate (New England BioLabs) were lysed in Pierce immunoprecipitation lysis buffer supplemented with protease and phosphatase inhibitor cocktail (Thermo Fisher Scientific). Proteins from whole-cell lysis were further incubated with anti-KIR2DL5 antibodies and Dynabeads protein G (Thermo Fisher Scientific) for further immunoprecipitation. […]

Row | Kd [1] | koff [1] | kon [1] | binding result [2] | binding result [3] | binding result [4] | binding result (SHP-2) | Binder
1 | 0.0413 nM | 6.96e-05 s⁻¹ | 1.69e+06 M⁻¹ s⁻¹ | no binding (tested: 5 µg/ml) | no binding (tested: 5 µg/ml) |  |  | anti-KIR2DL5 mAb clone B7B23 (antibody, V domains shown, also called B7B23 (IgG1, κ)) VH: QVQLQQSGAELVRPGVSVKISCKGSGYTFTDYTMHWVKQSHAKSLEWIGVISPYYGDASYNQKFKGKATMTVDKSSSTAYMELARLTSEDSAIYYCARGLLRGFAYWGQGTLVTVS VL: DIVMTQSPSSKDMSVGQKVTMRCKSSKSLLNSSNQKKYLAWYQQKPGQSPKLLVYFASIRESGVPDRFIGSGSGTDFTLTISSVQVEDLADYFCQQHYSTPWTFGGG
2 |  |  |  |  |  | binds | no binding | Y298F (receptor, also called KIR2DL5 Y298F (ITIM mutant) on transduced primary NK cells) receptor chain: HEGGQDKPLLSAWPSAVVPRGGHVTLLCRSRLGFTIFSLYKEDGVPVPELYNKIFWKSILMGPVTPAHAGTYRCRGSHPRSPIEWSAPSNPLVIVVTGLFGKPSLSAQPGPTVRTGENVTLSCSSRSSFDMYHLSREGRAHEPRLPAVPSVNGTFQADFPLGPATHGGTYTCFGSLHDSPYEWSDPSDPLLVSVTGNSSSSSSSPTEPSSKTGIRRHLHILIGTSVAIILFIILFFFLLHCCCSNKKNAAVMDQEPAGDRTVNREDSDDQDPQEVTFAQLDHCVFTQTKITSPSQRPKTPPTDTTMYMELPNAKPRSLSPAHKHHSQALRGSSRETTALSQNRVASSHVPAAGI
